The source of these data is doi:10.1101/2020.06.02.131086.

The target of the experiment is human S100A5 (hA5) (human) (UniProt P33763). Briefly: ITC.
Sequence of UniProt P33763 (P33763 whole entry): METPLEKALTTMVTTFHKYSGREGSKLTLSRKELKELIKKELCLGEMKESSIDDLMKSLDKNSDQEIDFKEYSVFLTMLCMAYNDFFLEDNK

B1: α-1-syn peptide (fragment of human α-1-syntrophin) (peptide)
peptide: GAGGERWQRVLLSLAEDV
The molecule B1 returned a Kd of 4.8 µM and a dH (kcal · mol^−1) of -4.5.
